The chains are these.
T1: QCP (bacteriophage Qβ coat protein) (bacteriophage Qβ, UniProt P03615 2-133)
T1 sequence: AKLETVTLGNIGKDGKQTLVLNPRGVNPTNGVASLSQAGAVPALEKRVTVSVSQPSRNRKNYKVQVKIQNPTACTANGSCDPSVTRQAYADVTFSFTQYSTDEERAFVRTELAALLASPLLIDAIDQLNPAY

Data on six molecules can be found in paper PMC11724954.

This data set has as its target T1, QCP (bacteriophage Qβ coat protein). As to the kind of experiment: SPR.
With CCAUUAGCUAAGCUAAUGGAAAAAAAAAAAAAAAAAAAAAAAA (structured_RNA) [A14], the Kd is 17.8 nM. CCUUUAGCUAAGCUAAUGGAAAAAAAAAAAAAAAAAAAAAAAA (structured_RNA) [A16] gave a Kd of 28.9 nM. This Kd lies about 1.6-fold higher than the previous one. For the molecule CCCUUAGCUAAGCUAAGUGAAAAAAAAAAAAAAAAAAAAAAAA (structured_RNA) [A18], the Kd worked out at 16 nM.

On to CCCUUAGCUAAGCUAAGGUAAAAAAAAAAAAAAAAAAAAAAAA (structured_RNA) [A19], for which the Kd turned out to be 80.4 nM. To CCUCUAGCUAAGCUAUAGGAAAAAAAAAAAAAAAAAAAAAAAA (structured_RNA) [A17] belongs 90.8 nM. CCGUUAGCUAAGCUAAUGGAAAAAAAAAAAAAAAAAAAAAAAA (structured_RNA) [A15] came in with a Kd of 86.2 nM.
